Data published in the nanobody polyreactivity screen of Harvey et al. (2022).

Test: yeast display, Sf9 membrane polyspecificity reagent, FACS + sequencing; frameworks hold sequencing errors
Outline: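 Polyreactivity labels are assigned by the sorting gate from which each nanobody was recovered. The gates were low and high (top ~1%), set on anti-HA fluorescence for expression and streptavidin fluorescence for reagent binding. Before sorting, galactose-induced (36–48 hours) yeast display cells were stained for 1 hour at 4 °C with 10% biotinylated, detergent-solubilized Sf9 membrane reagent.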

Sequence | polyreactivity (PSR sort gate)
PVQLVVSGGGLVQAGGSLRLRGAASGSSFSQNAMGWSRPAPGKDRELVAAITSGGITYYADSVKGRFTISRDNAKNTVYLQMNSLKPEDTAVYDCAADYWPSGRGVAFDYWGQGTQVTVSS | low polyreactivity
PVQRVESGGGLVQAGGSLRLSCAASGRTFDSYAMGWYRQAPGKERELVAAISSRGTRTYYADSVKGRFTSSRDNAKNPVYLQINSLQPEDTAGYYCNAGGAYEYDYWGQGSQVTVSS | high polyreactivity
QAQLQESAGSLVQAGGGLRLSCAASGYISVGSVKGWYRQAPSKERELVASIDQGANTNYADSVKGRFTISRDNAKNNVYLQMNSLIPEDTAVYYCATETTYILNYWGQGTQVTVSS | low polyreactivity
QAQLQESGGGLVQAGGSLPRSCAPSGSIFRFSGMGWYRRAPGKERELVASIGFGSITYYEDRVKGRFTISRDNANNTVYLQMNSLKPEDTAVYYCAVQVQDDSWLDYWGQGTQVTVSC | low polyreactivity
QAQLQESRGSVVQAGLGLRLSCAASGYISVGSVMGWYRQAPSKERELVASIDQGANTNYADSVKGRFTISRDNAKNNVYLQMISLKPEDTEVYYCATETTYILNYWGQGSQVTVSS | low polyreactivity
QAQLVESGGGLVQAGGSLRLSCAASGSIFVAYDKGWYREAPWKERELVAAINFDGTSTYYADSVKGRFTISRDNAKNTVYLQMNSLKPEDTAVYYCNKRVSPTFTGQYDYWGQGTQVTVSS | low polyreactivity
QCQLVESGGGLVQAGGSLLLSCAASGFIFNRNAMGWSRQAPGKEREFVSAISTLGAGTYYADSVKGRFTISRDNAKNTVYLQMNSLKPEDTAVYYCAADIFRYGYYNRYSKVGYDYWGQGTQVTVSS | high polyreactivity
QDHLVESGGGLVQAGGSLRLSCAASGFLFSQNVMGWYRQAPGKERELVAAISSGSRTYYADSVKGRFTISRDNAKNTVYLQMISLKPEDTAVYYCATDARVGGYVSEGDYWGLGTQVTVSS | low polyreactivity
QDHLVESGGGLVQAGGSLRLSCAASGISFSVNAMGWSRQAPGKERELVASISSGGSTNYADSVTGRFTISRDNAKNTVYLQMNSLNPEDTAVSYCAAGYWNDFDWGQGTQVTVSS | low polyreactivity
QDHLVESGGGLVQAGGSLRLSCAASGSTFGWYAMGWYRHAPGKERELVAVITRGGSTYYADSVKGHFTITLDNAKNTVYLQMNSLKPEDTAVYFCAARYRLPPYYYWGHGTQVTVSS | high polyreactivity
QDHLVESGGGLVQAGGSLRLSCAASRRTLLRYAMGWYRQAPGKERELVAAISSSGGRTYYADSVKGRFTISRDNAKNTVYLQMNSLKPEDTAVYYCAAKSSYVGHDYWGQGTQVTVSS | high polyreactivity
QDHLVESGGGLVQAGGSLRLSCSASGSNFRSYAMGWYRQAPGKERELVAAITWSGGRTYYADSVKGRFTISRDNAKNTVYLQMNSLKPEDTAVYYCNAVYLAYGGAYWGQGTQVTVSS | high polyreactivity
QDHLVESGGGLVQAGGSLRLTCAASGSIFADYTMGWYRQATGKEMELVAAINNRDGGTYYADSVKGRFTISRDNAKNTVYLEMNSLKPEDTAVYYCTKQVDLSGQWDFWYGYYTYDYWGQGTQLTVSS | low polyreactivity
QDHLVESGGGLVQAGGSLRVSCAASGLVYGQYAMGWYRPAPGKERELVAAINWSGGRTYYADSVKGRFTISRDNAKNTVYLQMNSLKPEDTAVYYCAADDPQDQDYENNYWGQGTQVNVSS | high polyreactivity
QDKLVESGGGLVQAGGSLRLICAASGFTFNRYALGWYRKAPGKERELVAGITGGGSTKYADSVKGRFTISRDNAKNTVYLQMNSLKPEDTSVYYCNASGYSYGARYYYWGQGTQVTVSS | high polyreactivity
QDLLVESGAGLVQAGGSVRLSCAASGRIVYTYAMAWYRQAPGIERELVAVISSGGSTYYADSVKGRFTNSRDNAKNTVYLQMNSLTPEDTAVYYCAAYGTKWGRGFYITGYGYWGQGTQVTVSS | low polyreactivity
